Results reported in US20250154277A1 (CONCEPT TO MEDICINE BIOTECH, published 2025).
Values joined by “and” are separate entries in the source; they are usually repeats but may differ in a detail not shown here. Equal values may be shown once.

T1: human 5T4-His protein (human, UniProt Q13641 32-355)
T1 construct: also called recombinant 5T4 protein (human 5T4-his tag); human 5T4 protein; not shown: His tag
T1 sequence (looked up): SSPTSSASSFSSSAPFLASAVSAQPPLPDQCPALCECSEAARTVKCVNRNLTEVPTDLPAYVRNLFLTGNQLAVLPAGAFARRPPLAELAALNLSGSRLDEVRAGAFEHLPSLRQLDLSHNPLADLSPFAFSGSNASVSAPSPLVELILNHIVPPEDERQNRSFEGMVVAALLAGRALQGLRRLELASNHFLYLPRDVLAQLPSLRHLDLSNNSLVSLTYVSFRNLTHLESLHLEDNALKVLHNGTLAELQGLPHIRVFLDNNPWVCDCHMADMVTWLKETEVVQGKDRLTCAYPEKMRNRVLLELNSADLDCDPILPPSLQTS

T2: cynomolgus 5T4 protein (cynomolgus monkey, UniProt Q4R8Y9 35-355, limits assumed)
T2 construct: Coated protein in ELISA; the screening step names a cyno 5T4-His protein; also called cyno 5T4; recombinant cyno 5T4-His protein
T2 sequence (looked up): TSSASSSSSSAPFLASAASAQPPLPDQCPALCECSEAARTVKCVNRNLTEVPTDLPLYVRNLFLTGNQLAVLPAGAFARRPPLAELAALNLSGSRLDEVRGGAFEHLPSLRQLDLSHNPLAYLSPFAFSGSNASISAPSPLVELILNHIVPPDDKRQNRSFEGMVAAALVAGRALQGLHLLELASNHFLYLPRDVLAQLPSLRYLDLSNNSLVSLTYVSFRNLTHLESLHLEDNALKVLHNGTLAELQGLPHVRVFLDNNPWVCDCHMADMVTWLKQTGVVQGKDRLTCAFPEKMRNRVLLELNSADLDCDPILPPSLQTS


How the values were obtained:
[1] = target: T1, human 5T4-His protein; assay: ELISA, coated antigen
[2] = target: T2, cynomolgus 5T4 protein; assay: ELISA, coated antigen
[3] = target: T1, human 5T4-His protein; assay: ELISA, coated 5T4-His
Method: To evaluate the binding activity of 159D5 humanized antibodies to human 5T4, the 159D5 chimeric antibody along with 159D5 humanized mAbs were subjected to ELISA test.
Briefly, microtiter plates were coated with human 5T4-His protein at 1 μg/ml in PBS, 100 μl/well at 4° C. overnight, then blocked with 150 μl/well of 10% BSA. Serial dilutions of antibodies were added to each well and incubated for 1 hour at 37° C. The plates were washed with PBS/Tween and then incubated with Goat Anti-Human IgG-HRP for 30 mins at 37° C. After washing, the plates were developed with TMB substrate and analyzed by spectrophotometer at OD 450 nm. As shown in FIG. 14 and Table 12, most of the humanized antibodies bound to human 5T4 with high activity.

[4] = target: T1, human 5T4-His protein; assay: SPR Biacore, Protein A capture
Method: The binding of the chimeric mAbs from these clones against recombinant 5T4 protein (human 5T4-his tag) was tested with Biacore using a capture method. The mAbs were captured using Protein A chip. A serial dilution of human 5T4-his tag protein was injected over captured antibody for 2-3 mins at a flow rate of 30 μl/min. The antigen was allowed to dissociate for 360-1000 s. All the experiments were carried out on a Biacore T200. Data analysis was carried out using Biacore T200 evaluation software.

[5] = target: T1, human 5T4-His protein; assay: SPR Biacore, Protein A capture, 50 nM 5T4-His
Method: The binding of the 159D5 humanized antibodies to recombinant 5T4 protein (human 5T4-his tag) was tested with Biacore using a capture method. The mAbs were captured using Protein A chip. 50 nM of human 5T4-his tag protein was injected over captured antibody for 3 mins at a flow rate of 30 μl/min. The antigen was allowed to dissociate for 600 s. All the experiments were carried out on a Biacore T200. Data analysis was carried out using the Biacore T200 evaluation software.

[6] = target: T1, human 5T4-His protein; assay: competitive ELISA, coated human 5T4, vs 159D5-biotin
[7] = target: T1, human 5T4-His protein; assay: as above; remark: listed apart in the source
[8] = target: T1, human 5T4-His protein; assay: as above; remark: listed apart in the source
[9] = target: T1, human 5T4-His protein; assay: competitive ELISA, coated human 5T4, vs 257F1-biotin
Method: Competitive ELISA was carried out to classify the test 5T4 mAbs based on the binding epitope to human 5T4.
Briefly, microtiter plates were coated with human 5T4 proteins at 0.5 μg/ml in PBS, 100 μl/well at 4° C. overnight, then blocked with 150 μl/well of 1% BSA. Serial dilutions of chimeric antibodies as well as 0.2 ug/ml biotin-conjugated reference mAb were added to each well and incubated for 1 hour at RT. The plates were washed with PBS/Tween and then incubate with streptavidin-HRP for 15 mins at RT. After washing, the plates were developed with TMB substrate and analyzed by spectrophotometer at OD 450 nm. According to the competition performance with reference mAbs, the 5T4 mAbs were divided into four bins (Bin A-D), as shown in FIG. 3-8 and Table 4.

[10] = target: T1, human 5T4-His protein; assay: as above; remark: listed apart in the source
[11] = target: T1, human 5T4-His protein; assay: as above; remark: listed apart in the source
[12] = target: T1, human 5T4-His protein; assay: competitive ELISA, coated human 5T4, vs 267B5-biotin
[13] = target: T1, human 5T4-His protein; assay: as above; remark: listed apart in the source

Binder	EC50 [1]	EC50 [2]	EC50 [3]	Kd [4]	koff [4]	kon [4]	Kd [5]	koff [5]	kon [5]	IC50 (read off the curve) [6]	IC50 (read off the curve) [7]	IC50 (read off the curve) [8]	IC50 (read off the curve) [9]	IC50 (read off the curve) [10]	IC50 (read off the curve) [11]	IC50 (read off the curve) [12]	IC50 (read off the curve) [13]
159D5 chimeric antibody (antibody, V domains shown, chimeric mAb) VH: DVQLVESGGGLVQPGGSRKLSCTASGFTFSNFGMHWVRQAPETGLEWVAYISSGSSTFYYADSVKGRFTISRDNPKNTLFLQMTSLRSEDTAMYFCARSPAYYRYGLDYWGQGTTLTVSS VL: DIVLTQSPASLAVSLGQRATISCRASQSVSSSTFSYMHWYQQKPGQPPKLLIKSSSNLESGVPARFSGSGSGTDFTLNIHPVEEEDTATYYCQHSWEIPYTFGGGTKLEIK	0.24 nM and 0.2 nM and 0.39 nM	0.18 nM and 0.19 nM and 0.2 nM and 0.11 nM	0.13 nM	0.206 nM	0.00024 s⁻¹	1.16e+06 M⁻¹ s⁻¹	0.618 nM	0.000204 s⁻¹	330000 M⁻¹ s⁻¹	~5 nM	~5 nM	~4 nM					
257F1 chimeric antibody (antibody, V domains shown, chimeric mAb) VH: QVLLQQSGAEVARPGASVKLSCKASGYTFTSYGLNWLRQRTGQGLEWIGEIYPRSENTHYNEKFKGKATLTADKSSSTAYMELRSLTSEDSAVYFCARGDWDFDHWGQGTTLTVSS VL: EILLTQSPAIIPASPGEKVTITCSASSSVSYMNWYQQKPGSSPKIWIYGISNLASGVPARFSGSGSGTFFSFTINSMEAEDVATYYCQQRSSYPRTFGGGTKLEIK	0.56 nM	0.11 nM		1.48 nM	0.000275 s⁻¹	186000 M⁻¹ s⁻¹							~10 nM	~7 nM	~8 nM		
267B5 chimeric antibody (antibody, V domains shown, chimeric mAb) VH: DVQFQESGPGLVKPSQSLSLTCSVTGYSITSSYYWNWIRQFPGDKLEWMGYISYDGSNNYNPSLKNRISITRDTSKKQFFLKLNSVTTEDTATYYCARSWDGGYAMDNWGQGTSVTVSS VL: SIVMTQTPKFLLVSAGDRVTITCKASQSVSNDVAWYQQKPGQSPKLLIYFASNRYTGVPDRFTGSGYGTVFTFTISTVQADDLAVYFCQQDYTSPWTFGGGTRLEIK	0.31 nM	0.17 nM		1.62 nM	0.000255 s⁻¹	158000 M⁻¹ s⁻¹										~10 nM	~5 nM
